Experimental data taken from article PMC9595563.

Target: the RBD of spike (depending on domain and variant)
Assay: ELISA

Sequence of LRRC15-Fc (Q8TF66 22-538): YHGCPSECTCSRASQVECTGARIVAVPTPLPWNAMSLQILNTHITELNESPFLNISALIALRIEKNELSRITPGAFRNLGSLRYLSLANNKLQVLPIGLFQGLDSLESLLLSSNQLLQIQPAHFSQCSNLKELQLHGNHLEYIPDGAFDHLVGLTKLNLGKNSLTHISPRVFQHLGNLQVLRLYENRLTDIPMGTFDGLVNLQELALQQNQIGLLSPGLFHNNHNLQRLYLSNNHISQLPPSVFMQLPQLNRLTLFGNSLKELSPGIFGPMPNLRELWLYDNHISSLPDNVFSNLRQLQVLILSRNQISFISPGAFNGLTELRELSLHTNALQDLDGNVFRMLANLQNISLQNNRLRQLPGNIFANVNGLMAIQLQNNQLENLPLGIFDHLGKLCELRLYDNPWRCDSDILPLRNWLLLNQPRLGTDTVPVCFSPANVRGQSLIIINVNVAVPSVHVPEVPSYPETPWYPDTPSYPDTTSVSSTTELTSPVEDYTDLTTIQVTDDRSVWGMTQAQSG

Substance “LRRC15-Fc (from UniProt Q8TF66) (Fc fusion)” has a Kd of 43 to 148 nM.
